# In IntAct's records for PubMed 16432186:
# B1: Beta-arrestin-1 (Homo sapiens), P49407-1 (parent)
# chain: MGDKGTRVFKKASPNGKLTVYLGKRDFVDHIDLVDPVDGVVLVDPEYLKERRVYVTLTCAFRYGREDLDVLGLTFRKDLFVANVQSFPPAPEDKKPLTRLQERLIKKLGEHAYPFTFEIPPNLPCSVTLQPGPEDTGKACGVDYEVKAFCAENLEEKIHKRNSVRLVIRKVQYAPERPGPQPTAETTRQFLMSDKPLHLEASLDKEIYYHGEPISVNVHVTNNTNKTVKKIKISVRQYADICLFNTAQYKCPVAMEEADDTVAPSSTFCKVYTLTPFLANNREKRGLALDGKLKHEDTNLASSTLLREGANREILGIIVSYKVKVKLVVSRGGLLGDLASSDVAVELPFTLMHPKPKEEPPHREVPENETPVDTNLIELDTNDDDIVFEDFARQRLKGMKDDKEEEEDGTGSPQLNNR
# Variants of: B1
# Conditions: with src_human SRC
row,Variant,effect of a mutation on the interaction
1,MGDKGTRVFKKASPNGKLTVYLGKRDFVDHIDLVDPVDGVVLVDPEYLKERRVYVTLTCAFRYGREDLDVLGLTFRKDLFVANVQSFPPAPEDKKPLTRLQERLIKKLGEHAYPFTFEIPPNLPCSVTLQPGPEDTGKACGVDYEVKAFCAENLEEKIHKRNSVRLVIRKVQYAPERPGPQPTAETTRQFLMSDKPLHLEASLDKEIYYHGEPISVNVHVTNNTNKTVKKIKISVRQYADICLFNTAQYKCPVAMEEADDTVAPSSTFCKVYTLTPFLANNREKRGLALDGKLKHEDTNLASSTLLREGANREILGIIVSYKVKVKLVVSRGGLLGDLASSDVAVELPFTLMHPKPKEEPPHREVPENETPVDTNLIELDTNDDDIVFEDFARQRLKGMKDDKEEEEDGTGDPQLNNR [S412D],disrupting interaction strength
